Patent US20170275344A1, “POLYPEPTIDES AND USES THEREOF AS A DRUG FOR TREATMENT OF AUTOIMMUNE DISORDERS” (Compugen Ltd., priority 2014, published 2017)

What was measured:
[1] = system: SJL/J mice; assay: Adoptive transfer R-EAE, clinical score; type: in vivo, mouse
Protocol: Female SJL/J mice were primed with 50 ug of PLP139-151/CFA according to the standard laboratory protocol on day 0. On day 8 post disease induction, the inguinal lymph nodes were collected and the total lymph node cells were re-activated in culture in the presence of PLP139-151 for 3 days. At the end of culture, cells were collected and transferred into naive recipient SJL/J mice.
a. Mice were shaved (about a lin.xlin, square on the back between the hind flanks) and injected with CFA/PLP139-151 emulsion at 100 μl per mouse s.c., divided between three spots on the back and flanks. Peptide and final dose given per mouse: 50 μg of PLP139-151 peptide on day 0.
b. On day 8 post priming with PLP139-151/CFA, the draining inguinal lymph nodes were collected, and single cell suspensions were prepared. Total lymph node cells were cultured at a density of 8×10^6 cells per ml in the HL-1 medium plus PLP139-151 peptide (20 μg/ml) in T75 flasks.
c. After 3 days of culture, the PLP139-151 reactivated cells were collected and counted using an hemacytometer. The number of total viable cells and the number of blast cells was determined. The percentage of blast cells expected following this protocol is 20-30% of the total viable cells.
d. Unless otherwise specified, 3×10^6 cells were transferred to each recipient mouse by intravenous injection.
f. Mice were scored on the indicated days, on a 0-5 disease score scale per standard laboratory protocol: 0, no abnormality; 1, limp tail; 2, limp tail and hind limb weakness; 3, hind limb paralysis; 4, hind limb paralysis and forelimb weakness; and 5, moribund.

[2] = system: Female C57BL/6 recipient mice (CD45.2+); assay: HY bone marrow transplantation model, male CD45.1 BM into female CD45.2 mice (FACS of blood and spleen); type: in vivo, mouse
Text: A transplantation model utilizing male bone marrow (BM) cells from C57BL/6 mice transplanted into female mice of the same starin was used to study whether C1ORF32 ECD-Fc induces immune tolerance. In this model BM cells of the male mouse are rejected by the female recipients due to mismatch in the minor histocompatibility antigen encoded by the Y chromosome (Hya). To allow identification of the male cells in the female mice blood, male mice expressing CD45.1 isotype were selected while the female mice carry CD45.2 isotype. This model provides a tool for testing the effect of potential drugs on induction of tolerance towards the grafted cells.
In this model, C1ORF32 ECD-Fc (SEQ ID NO:42) treatment started one week before bone marrow transplantation and continued for five weeks. Female recipient mice were followed for percentage of CD45.1+ and CD45.2+ cells present within the blood.
Female C57BL/6 recipient mice (CD45.2+) were sub-lethally irradiated with 200 rads/cGy 24 hours before transplantation of either female C57Bl/6 (CD45.1+) or male C57Bl/6 (CD45.1+) 5×10^6 bone marrow cells. Recipient mice were allocated into treatment groups as detailed below (n=6 per group). Treatments were given at 300 ug/dose i.p, 3×/wk starting one week prior to transplantation and continued for 4 weeks following transplantation, giving a total of 15 treatments during this 5 weeks period.
1. Female CD45.1 into female CD45.2 2. Male CD45.1 into female CD45.2+anti-CD40L (300 ug/dose) (Clone MR-1; BioXCell, Cat#BE0017-1) 3. Male CD45.1 into female CD45.2+C1ORF ECD-Fc (SEQ ID NO:42) (300 ug/dose)2 4. Male CD45.1 into female CD45.2+Control Ig (mouse IgG2a) (300 ug/dose)
Beginning at 2 weeks following bone marrow transplantation, blood samples from the tail were collected from each mouse once a week for 4 weeks. Approximately 2-3 drops of blood were collected per mouse into 200 ul of PBS+EDTA (50 mM), samples were spun down, and RBCs lysed with ammonium chloride. The cells were washed 3× with PBS, stained with the viability dye Aqua Dead Cell Stain (Invitrogen; Cat#L34957), blocked with Fc Receptor block (anti-mouse CD16/32; eBioscience; Cat#14-0161-86), and stained with anti-mouse CD45.1 APC-Cy7 (eBiosciences; Cat#47-0453-80) and anti-mouse CD45.2 FITC (eBioscience; Cat#11-0454-82). The analysis for chimerism was determined by flow cytometric analysis (on total live cells) for the percentage of CD45.1+ versus CD45.2+ cells present in the blood of female recipient mice.
During weeks 6, 7, and 8 the blood samples were also stained to determine the percentage of CD4+ Teff cells and CD4+ Treg cells present within the blood using the cellular markers CD44, CD25, and FoxP3. Details of the Abs used in the flow panels for weeks 6, 7, and 8 are listed below.
These same populations of cells were analyzed at week 8 within the spleen. In addition, the proliferative and secreted cytokine responses of total splenocytes in ex vivo recall cultures were tested in the presence of medium alone, anti-CD3 (1 ug/ml), the HY antigen DBY peptide (NAGFNSNRANSSRSS; Genemed Synthesis; San Antonio, Tex.) (10 ug/ml), irradiated male splenocytes (1:1 ratio), or irradiated female splenocytes (1:1 ratio).

[3] = week 6 post transplant, vs Control Ig

B1: C1ORF32 ECD-Fc (SEQ ID NO:42): fusion protein of human C1ORF32 ECD fused to mouse immunoglobulin Fc (human-mouse fusion protein) (protein)
chain: LQVTVPDKKKVAMLFQPTVLRCHFSTSSHQPAVVQWKFKSYCQDRMGESLGMSSTRAQSLSKRNLEWDPYLDCLDSRRTVRVVASKQGSTVTLGDFYRGREITIVHDADLQIGKLMWGDSGLYYCIITTPDDLEGKNEDSVELLVLGRTGLLADLLPSFAVEIMGSENLYFQGSGEPRGPTIKPCPPCKCPAPNLLGGPSVFIFPPKIKDVLMISLSPIVTCVVVDVSEDDPDVQISWFVNNVEVHTAQTQTHREDYNSTLRVVSALPIQHQDWMSGKEFKCKVNNKDLPAPIERTISKPKGSVRAPQVYVLPPPEEEMTKKQVTLTCMVTDFMPEDIYVEWTNNGKTELNYKNTEPVLDSDGSYFMYSKLRVEKKNWVERNSYSCSVVHEGLHNHHTTKSFSRTPGK
modifications: Fusion protein human C1ORF32-ECD fused to mouse IgG2a Fc
clinical signs of the disease (mean clinical score) ([1]; 100 ug/mouse i.p. 3x/wk for 2 wks from onset of disease remission, two studies): robust inhibition of clinical signs of the disease
disease induction ([1]; study Cgen data, treatment from the time of cell transfer, 100 ug/dose i.p. 3x/wk for 2 wks): complete abolishment of disease induction
disease development ([1]; study MYC48 FACS, treatment from the time of cell transfer, 100 ug/dose i.p. 3x/wk for 2 wks): abolished disease development
graft rejection ([2]; 5 week dosing schedule beginning one week before transplant): effective in preventing graft rejection
male donor CD45.1+ cells present in the blood of recipient females ([2]; week 4 post transplant, maintained until week 8, 300 ug/dose i.p. 3x/wk for 5 wks): highly significant number of male CD45.1+ cells were present
effector/memory CD4+ T cells (CD45.1+/CD4+/CD44hi) within the blood [2, 3]: decrease
resting CD4+ T cells (CD45.1+/CD4+/CD44lo) in blood [2, 3]: significantly higher percentage
activated donor CD4+ T cells (CD45.1+/CD4+/CD25+/FoxP3-) in blood ([2]; week 7 post transplant, vs Control Ig): significantly lower percentage
number of donor-derived (CD45.1+) CD4+/CD25+/FoxP3+ Treg cells and Treg subpopulations in spleen ([2]; week 8): striking increase
donor (CD45.1+) Tregs (FoxP3+CD25+) in blood ([2]; week 8, vs Control Ig): significant increase
donor (CD45.1+) activated CD4+ T cells (FoxP3-CD25+) in blood ([2]; week 8, vs Control Ig): decrease
donor (CD45.1+) effector/memory CD4+ T cells (CD44hi) in blood ([2]; week 8, vs Control Ig): significant increase
number of endogenous-derived (CD45.2+) Tregs and Treg subtypes in spleen ([2]; week 8, vs Ig control group): reduced
percentage and number of CD45.1+/CD4+ T cells within the spleen ([2]; week 8 post transplant): increased
